Laboratory results as given in publication PMC4267404, “Trihelix transcription factor GT-4 mediates salt tolerance via interaction with TEM2 in Arabidopsis”.

T1: GST-GT-4 (Arabidopsis thaliana, UniProt Q9LU92 1-372)
T1 sequence: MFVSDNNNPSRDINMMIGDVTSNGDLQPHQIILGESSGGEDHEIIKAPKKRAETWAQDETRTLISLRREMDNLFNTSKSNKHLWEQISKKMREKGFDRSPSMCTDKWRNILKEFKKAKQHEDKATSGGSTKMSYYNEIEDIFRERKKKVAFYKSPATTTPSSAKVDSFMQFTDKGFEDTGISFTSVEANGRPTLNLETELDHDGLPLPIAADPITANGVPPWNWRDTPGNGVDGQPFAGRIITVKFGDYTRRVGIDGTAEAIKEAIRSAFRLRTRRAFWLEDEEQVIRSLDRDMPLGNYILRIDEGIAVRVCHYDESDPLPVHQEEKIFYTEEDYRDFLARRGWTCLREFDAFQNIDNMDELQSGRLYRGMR

B1: Cor15A promoter 60 bp fragment with GT-3b box (dsDNA)
DNA 1: TTTCTTTAAGGAAATACATCAGAGAGAAAAATTATTACGAAACGATTCTATTACAAGTAA
DNA 2: TTACTTGTAATAGAATCGTTTCGTAATAATTTTTCTCTCTGATGTATTTCCTTAAAGAAA
B2: P2 (GT-3b box) (dsDNA)
DNA 1: CGGAAAAATCGAAAAATCGAAAAATT
DNA 2: AATTTTTCGATTTTTCGATTTTTCCG
B3: P7 (MRE4) (dsDNA)
DNA 1: TATCTCACCGTTACCTCTCACCGTTACCTCTCACCTACCATT
DNA 2: AATGGTAGGTGAGAGGTAACGGTGAGAGGTAACGGTGAGATA
B4: P1 (GT-3 box) (dsDNA)
DNA 1: CGGGGTAAATAGGTAAATAGGTAAATA
DNA 2: TATTTACCTATTTACCTATTTACCCCG

Key:
GST-GT-4 [1] = target: T1, GST-GT-4; experiment: EMSA; Probes annealed in 50 mM NaCl (70 C 5 min, then room temperature); EMSA binding buffer, pH and temperature not given (as in ref. 57); settings: protein: recombinant; tags: N-terminal GST (pGEX6p-1); label: digoxigenin
GST-GT-4 [2] = target: T1, GST-GT-4; experiment: EMSA; unlabeled competitor reduces band; Probes annealed in 50 mM NaCl (70 C 5 min, then room temperature); EMSA binding buffer, pH and temperature not given (as in ref. 57); settings: protein: recombinant; tags: N-terminal GST (pGEX6p-1); label: digoxigenin; annealed complementary oligos

| Binder | binding result (GST-GT-4 [1]) | binding result (GST-GT-4 [2]) |
| --- | --- | --- |
| B1 | binds |  |
| B2 |  | binds |
| B3 |  | binds |
| B4 |  | binds |
